Experimental data as given in publication PMC11614108, “Structures of Trichomonas vaginalis macrophage migratory inhibitory factor” (Acta Crystallographica Section F: Structural Biology …, 2024).

What was measured:
[1] = target: T1, His-TvMIF (T. vaginalis macrophage migration inhibitory factor) (Trichomonas vaginalis, UniProt A2DXT4); assay: X-ray crystal structure, co-crystallization, […] A; assay type: binding; details: 5 mM sodium pyruvate, pH 7.0 protein buffer, reservoir pH 8.5, 291 K; non-canonical site at Asp68, not the tautomerase site (blocked by N-terminal tag); possibly a crystallization artifact
T1 construct: gene TVAG_219770; ~15 kDa monomer; trimer in crystal (8ur2: dimer of trimers)

[2] = target: N-terminally hexahistidine-tagged Trichomonas vaginalis macrophage migration inhibitory factor (Trichomonas vaginalis ATCC PRA-98/G3); assay: crystal structure; His-TvMIF co-crystallized with 5 mM sodium pyruvate, Morpheus B12, 291 K, space group I4(1) (PDB 8ur2); six monomers
[3] = target: N-terminally hexahistidine-tagged Trichomonas vaginalis macrophage migration inhibitory factor (Trichomonas vaginalis ATCC PRA-98/G3); assay: crystal structure; His-TvMIF crystallized at 291 K by sitting-drop vapor diffusion; apo P4(1)2(1)2 form (PDB 8uz4) and I4(1)22 form from an attempt at co-crystallization with 5 mM sodium 4-hydroxyphenylpyruvate (PDB 8ur4); three monomers per asymmetric unit

Molecule	X-ray crystal structure, co-crystallization, 1.90 A [1]	stoichiometry N [2]	stoichiometry N [3]
CC(=O)C(=O)O [pyruvate]	The Fo − Fc omit electron-density maps of PDB entry 8ur2 can be modeled with pyruvate	–	–
N-terminally hexahistidine-tagged Trichomonas vaginalis macrophage migration inhibitory factor (natural protein)	–	6	3
